Measurements as given in publication PMC9735246 (Cell, 2022).
One block for each binder: values may come before it.

Experiments:
Human β-tubulin (TBB5) [1] = target: T1, Human β-tubulin (TBB5) (human, UniProt P07437 1-444); assay: cross-linking
Human α-tubulin (TUBA1B) [2] = target: T2, Human α-tubulin (TUBA1B) (human, UniProt P68363 1-451); assay: cross-linking
Human α-tubulin (TUBA1B) [3] = target: T2, Human α-tubulin (TUBA1B); assay: native gel or EMSA
Human β-tubulin (TBB5) [4] = target: T1, Human β-tubulin (TBB5); assay: native gel or EMSA

T1 sequence (P07437 whole entry): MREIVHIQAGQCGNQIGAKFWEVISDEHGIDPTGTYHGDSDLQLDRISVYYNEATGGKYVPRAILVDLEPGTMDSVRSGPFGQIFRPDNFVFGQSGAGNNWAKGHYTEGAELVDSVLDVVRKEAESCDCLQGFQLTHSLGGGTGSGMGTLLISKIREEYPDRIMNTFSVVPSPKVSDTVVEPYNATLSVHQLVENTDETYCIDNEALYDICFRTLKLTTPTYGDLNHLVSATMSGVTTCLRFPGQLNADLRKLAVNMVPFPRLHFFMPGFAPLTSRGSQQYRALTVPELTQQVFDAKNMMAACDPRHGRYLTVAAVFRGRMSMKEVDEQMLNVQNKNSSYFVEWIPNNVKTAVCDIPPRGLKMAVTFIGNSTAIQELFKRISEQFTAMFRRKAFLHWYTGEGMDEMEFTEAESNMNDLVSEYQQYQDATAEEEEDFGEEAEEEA
T2 sequence (P68363 whole entry): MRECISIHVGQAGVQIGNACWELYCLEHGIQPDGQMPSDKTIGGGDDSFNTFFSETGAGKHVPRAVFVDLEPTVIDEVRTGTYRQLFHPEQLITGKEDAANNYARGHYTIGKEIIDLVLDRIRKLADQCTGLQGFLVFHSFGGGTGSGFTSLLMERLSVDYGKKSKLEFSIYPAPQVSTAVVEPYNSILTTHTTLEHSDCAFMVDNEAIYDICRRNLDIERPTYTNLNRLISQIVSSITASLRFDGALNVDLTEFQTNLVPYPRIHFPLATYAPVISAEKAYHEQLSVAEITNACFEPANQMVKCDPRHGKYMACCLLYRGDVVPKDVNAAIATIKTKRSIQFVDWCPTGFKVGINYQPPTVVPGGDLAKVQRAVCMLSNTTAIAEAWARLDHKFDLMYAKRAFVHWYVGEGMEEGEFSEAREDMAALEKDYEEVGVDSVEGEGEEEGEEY

B2: PFD1, subunit of human Prefoldin (natural protein)
chain: MAAPVDLELKKAFTELQAKVIDTQQKVKLADIQIEQLNRTKKHAHLTDTEIMTLVDETNMYEGVGRMFILQSKEAIHSQLLEKQKIAEEKIKELEQKKSYLERSVKEAEDNIREMLMARRAQ
- binding result (Human β-tubulin (TBB5) [1]): binds
- binding result (Human α-tubulin (TUBA1B) [2]): binds

B4: TBCA (natural protein, UniProt O75347 1-108, looked up)
chain: MADPRVRQIKIKTGVVKRLVKEKVMYEKEAKQQEEKIEKMRAEDGENYDIKKQAEILQESRMMIPDCQRRLEAAYLDLQRILENEKDLEEAEEYKEARLVLDSVKLEA
- binding result (Human β-tubulin (TBB5) [4]): binds

More lines, now with the values ahead:

- binding result (Human β-tubulin (TBB5) [1]): binds
- binding result (Human α-tubulin (TUBA1B) [2]): binds
B1: PFD3, subunit of human Prefoldin (natural protein)
chain: MAAVKDSCGKGEMATGNGRRLHLGIPEAVFVEDVDSFMKQPGNETADTVLKKLDEQYQKYKFMELNLAQKKRRLKGQIPEIKQTLEILKYMQKKKESTNSMETRFLLADNLYCKASVPPTDKVCLWLGANVMLEYDIDEAQALLEKNLSTATKNLDSLEEDLDFLRDQFTTTEVNMARVYNWDVKRRNKDDSTKNKA

- binding result (Human α-tubulin (TUBA1B) [3]): binds
B3: TBCB (natural protein, UniProt Q99426 1-244, looked up)
chain: MEVTGVSAPTVTVFISSSLNTFRSEKRYSRSLTIAEFKCKLELLVGSPASCMELELYGVDDKFYSKLDQEDALLGSYPVDDGCRIHVIDHSGARLGEYEDVSRVEKYTISQEAYDQRQDTVRSFLKRSKLGRYNEEERAQQEAEAAQRLAEEKAQASSIPVGSRCEVRAAGQSPRRGTVMYVGLTDFKPGYWIGVRYDEPLGKNDGSVNGKRYFECQAKYGAFVKPAVVTVGDFPEEDYGLDEI
